Laboratory results taken from US20240376198A1 (INHIBRX, published 2024).
Where two headings read alike, the source gives them in different places.

T1: mouse NKp46 (mouse, UniProt Q8C567 17-325)
T1 construct: whole, on cells
T1 sequence (looked up): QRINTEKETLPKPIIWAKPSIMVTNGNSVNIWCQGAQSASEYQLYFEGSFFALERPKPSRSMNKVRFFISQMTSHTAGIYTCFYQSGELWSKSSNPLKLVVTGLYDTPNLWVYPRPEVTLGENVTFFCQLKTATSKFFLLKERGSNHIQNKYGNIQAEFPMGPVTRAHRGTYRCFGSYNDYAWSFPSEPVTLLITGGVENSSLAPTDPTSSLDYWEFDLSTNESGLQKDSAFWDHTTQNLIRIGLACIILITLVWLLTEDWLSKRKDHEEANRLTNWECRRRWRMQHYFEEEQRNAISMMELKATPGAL


Key:
cynomolgus NKp46 [1] = target: T2, cynomolgus NKp46 (cynomolgus monkey, UniProt Q95JB9 22-306); test: flow cytometry, HEK293F cells transfected with cyno NKp46
T2 construct: also called cyno NKp46; cynomolgus monkey NKp46
Method: (§1) Binding of NKp46-binding polypeptides formatted as VHH-Fc fusion proteins was assessed by flow cytometry. An IgG1-Fc lacking a hinge, or a homodimeric Fc (FIG. 1I-1J) was used (the Fc lacking a hinge is annotated as Fc*). HEK293F cells were transiently transfected with a plasmid encoding full-length human NKp46, cynomolgus NKp46, or mouse NKp46, followed by an IRES and GFP. Transfected cells expressing NKp46 and GFP were used to measure binding of the polypeptides. The transfected cells were plated in a 96-well plate at 30,000 cells per well in FACS buffer (PBS, 1% BSA, 0.1% NaN₃, pH 7.4). Untransfected HEK293F cells were used as a NKp46-negative control and plated at 30,000 cells per well in a separate plate. Test polypeptides were then diluted to two times the final concentration of 1000 nM, and a 3-, 4-, or 5-fold, serial dilution was made. A final column was left with only FACS buffer as a secondary-only control. Test article dilutions were added to an equal volume of cells, and assay plates were incubated for 30 minutes at 4° C. After washing twice with 150 μL. of FACS buffer per well, the cells were resuspended in FACS buffer with α-hFc-647 secondary diluted 1:1000-2000. Assay plates were then left to incubate at 4° C. for 20-30 minutes. After one additional wash with 150 μL of FACS buffer, bound antibody was detected by flow cytometry. Flow cytometric detection was performed on an Intellicyt iQue Plus or Accuri iQue. NKp46 transfected cells were gated on as GFP positive, and polypeptide binding was measured as median fluorescence at 647 nm.

mouse NKp46 [2] = target: T1, mouse NKp46; test: flow cytometry, HEK293F cells transfected with mouse NKp46
Method: as §1

human NKp46 [3] = target: T3, human NKp46 (human, UniProt O76036 22-304); test: flow cytometry, HEK293F cells transfected with human NKp46
T3 construct: also called CD335; NCR1
Method: as §1

human NKp46 [4] = target: T3, human NKp46; test: as above; remark: listed apart in the source
Method: as §1

mouse NKp46 [5] = target: T1, mouse NKp46; test: flow cytometry, HEK293F cells transfected with mouse NKp46; remark: listed apart in the source
Method: as §1

cynomolgus NKp46 [6] = target: T2, cynomolgus NKp46; test: flow cytometry, HEK293F cells transfected with cyno NKp46; remark: listed apart in the source
Method: as §1

T3 sequence (O76036 22-304 Q82K): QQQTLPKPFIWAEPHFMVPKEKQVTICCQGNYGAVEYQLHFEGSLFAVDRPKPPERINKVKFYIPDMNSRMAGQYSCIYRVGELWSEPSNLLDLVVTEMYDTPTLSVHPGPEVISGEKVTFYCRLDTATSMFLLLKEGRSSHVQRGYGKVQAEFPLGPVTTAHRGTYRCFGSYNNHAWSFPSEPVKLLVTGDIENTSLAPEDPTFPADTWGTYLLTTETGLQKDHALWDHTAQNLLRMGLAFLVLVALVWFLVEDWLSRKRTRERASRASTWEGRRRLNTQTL
T2 sequence (Q95JB9 22-306 limits assumed): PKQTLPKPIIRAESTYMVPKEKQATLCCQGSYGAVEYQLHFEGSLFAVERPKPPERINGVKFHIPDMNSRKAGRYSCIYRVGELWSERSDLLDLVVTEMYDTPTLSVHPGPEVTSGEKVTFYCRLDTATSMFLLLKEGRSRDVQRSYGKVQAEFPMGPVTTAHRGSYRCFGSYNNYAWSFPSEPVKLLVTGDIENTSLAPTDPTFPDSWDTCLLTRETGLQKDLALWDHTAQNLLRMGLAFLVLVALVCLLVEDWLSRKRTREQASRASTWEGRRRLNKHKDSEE

Row | Binder | Bmax (MFI) (cynomolgus NKp46 [1]) | Kd (cynomolgus NKp46 [1]) [nM] | Bmax (MFI) (mouse NKp46 [2]) | Kd (mouse NKp46 [2]) [nM] | Bmax (MFI) (human NKp46 [3]) | Kd (human NKp46 [3]) [nM] | Bmax (MFI) (human NKp46 [4]) | Kd (human NKp46 [4]) [nM] | Bmax (MFI) (mouse NKp46 [5]) | Kd (mouse NKp46 [5]) [nM] | Bmax (MFI) (cynomolgus NKp46 [6]) | Kd (cynomolgus NKp46 [6]) [nM]
1 | NKp46-hz5D7v1-Fc* (Fc fusion, VHH-Fc fusion with an IgG1 Fc lacking a hinge (Fc*)) EVQLVESGGGEVQPGGSLRLSCAASGRTFASAAMGWFRQAPGKGREFVAAISRSDDTYYAESVKGRFTISRDNAKNTLYLQMSSLRAEDTAVYYCAAVVPTYGNNIYVHSAAYNYWGQGTLVTVKPGGGGPSVFLFPPKPKDTLMISRTPEVTCVVVDVSHEDPEVKFNWYVDGVEVHNAKTKPREEQYNSTYRVVSVLTVLHQDWLNGKEYKCKVSNKALPAPIEKTISKAKGQPREPQVYTLPPSRDELTKNQVSLTCLVKGFYPSDIAVEWESNGQPENNYKTTPPVLDSDGSFFLYSKLTVDKSRWQQGNVFSCSVMHEALHNHYTQKSLSLSPG | 67600 | 0.691 | 1.17e+06 | 0.468 | 790000 | 0.139 |  |  |  |  |  | 
2 | NKp46-hz5D7v2-Fc* (Fc fusion, VHH-Fc fusion with an IgG1 Fc lacking a hinge (Fc*); also called NKp46-bz5D7v2-Fc*) EVQLVESGGGEVQPGGSLRLSCAASGRTFASAAMGWFRQAPGKEREFVAAISRSDDTYYAESVKGRFTISRDNAKNTLYLQMSSLRAEDTAVYYCAAVVPTYGNNIYVHSAAYNYWGQGTLVTVKPGGGGPSVFLFPPKPKDTLMISRTPEVTCVVVDVSHEDPEVKFNWYVDGVEVHNAKTKPREEQYNSTYRVVSVLTVLHQDWLNGKEYKCKVSNKALPAPIEKTISKAKGQPREPQVYTLPPSRDELTKNQVSLTCLVKGFYPSDIAVEWESNGQPENNYKTTPPVLDSDGSFFLYSKLTVDKSRWQQGNVFSCSVMHEALHNHYTQKSLSLSPG | 51500 | 0.902 | 1.21e+06 | 0.729 | 938000 | 0.762 |  |  |  |  |  | 
3 | NKp46-hz5D7v4-Fc* (Fc fusion, VHH-Fc fusion with an IgG1 Fc lacking a hinge (Fc*)) EVQLVESGGGEVQPGGSLRLSCAASGRTFASAAMGWFRQAPGKEREFVAAISRSDDTYYADSVKGRFTISRDNAKNTVYLQMSSLRAEDTAVYYCAAVVPTYGNNIYVHSAAYNYWGQGTLVTVKPGGGGPSVFLFPPKPKDTLMISRTPEVTCVVVDVSHEDPEVKFNWYVDGVEVHNAKTKPREEQYNSTYRVVSVLTVLHQDWLNGKEYKCKVSNKALPAPIEKTISKAKGQPREPQVYTLPPSRDELTKNQVSLTCLVKGFYPSDIAVEWESNGQPENNYKTTPPVLDSDGSFFLYSKLTVDKSRWQQGNVFSCSVMHEALHNHYTQKSLSLSPG |  | 0.446 |  | 0.887 |  | 0.189 |  |  |  |  |  | 
4 | NKp46-hz5D7v7-Fc* (Fc fusion, VHH-Fc fusion with an IgG1 Fc lacking a hinge (Fc*); also called NKp46-bz5D7v7-Fc*) EVQLVESGGGEVQPGGSLRLSCAASGRTFASAAMGWFRQAPGKEREFVAAISRSGDTYYADSVKGRFTISRDNAKNTVYLQMSSLRAEDTAVYYCAAVVPTYGNNIYVHSAAYNYWGQGTLVTVKPGGGGPSVFLFPPKPKDTLMISRTPEVTCVVVDVSHEDPEVKFNWYVDGVEVHNAKTKPREEQYNSTYRVVSVLTVLHQDWLNGKEYKCKVSNKALPAPIEKTISKAKGQPREPQVYTLPPSRDELTKNQVSLTCLVKGFYPSDIAVEWESNGQPENNYKTTPPVLDSDGSFFLYSKLTVDKSRWQQGNVFSCSVMHEALHNHYTQKSLSLSPG | 64600 | 0.703 | 1.17e+06 | 0.613 | 866000 | 0.23 |  |  |  |  |  | 
5 | NKp46-hz5D7v12-Fc* (Fc fusion, VHH-Fc fusion with an IgG1 Fc lacking a hinge (Fc*)) EVQLVESGGGEVQPGGSLRLSCAASGRTFASAAMGWFRQAPGKEREFVAAISRSDDTYYAESVKGRFTISRDNAKNTVYLQMSSLRAEDTAVYYCAAVVPTYGSNIYVHSAAYNYWGQGTLVTVKPGGGGPSVFLFPPKPKDTLMISRTPEVTCVVVDVSHEDPEVKFNWYVDGVEVHNAKTKPREEQYNSTYRVVSVLTVLHQDWLNGKEYKCKVSNKALPAPIEKTISKAKGQPREPQVYTLPPSRDELTKNQVSLTCLVKGFYPSDIAVEWESNGQPENNYKTTPPVLDSDGSFFLYSKLTVDKSRWQQGNVFSCSVMHEALHNHYTQKSLSLSPG |  |  |  |  |  |  | 149000 | 0.14 | 49300 | 0.513 | 17900 | 0.455
6 | NKp46-hz5D7v13-Fc* (Fc fusion, VHH-Fc fusion with an IgG1 Fc lacking a hinge (Fc*)) EVQLVESGGGEVQPGGSLRLSCAASGRTFASAAMGWFRQAPGKEREFVAAISRSDDTYYAESVKGRFTISRDNAKNTVYLQMSSLRAEDTAVYYCAAVVPTYGNTIYVHSAAYNYWGQGTLVTVKPGGGGPSVFLFPPKPKDTLMISRTPEVTCVVVDVSHEDPEVKFNWYVDGVEVHNAKTKPREEQYNSTYRVVSVLTVLHQDWLNGKEYKCKVSNKALPAPIEKTISKAKGQPREPQVYTLPPSRDELTKNQVSLTCLVKGFYPSDIAVEWESNGQPENNYKTTPPVLDSDGSFFLYSKLTVDKSRWQQGNVFSCSVMHEALHNHYTQKSLSLSPG |  |  |  |  |  |  | 150000 | 0.234 | 38100 | 0.604 | 18800 | 0.748
7 | NKp46-5D7-Fc* (Fc fusion, VHH-Fc fusion with an IgG1 Fc lacking a hinge (Fc*); also called 5D7 VHH) QVTLRESGASLSLTCAASGRTFASAAMGWFRQAPGEEREFVAAISRSDDTYYADSVKGRFTISRDNAKNTVYLQMNSLKSEDTAVYYCAAVVPTYGNNIYVHSAAYNYWGQGTQVTVKPGGGGGPSVFLFPPKPKDTLMISRTPEVTCVVVDVSHEDPEVKFNWYVDGVEVHNAKTKPREEQYNSTYRVVSVLTVLHQDWLNGKEYKCKVSNKALPAPIEKTISKAKGQPREPQVYTLPPSRDELTKNQVSLTCLVKGFYPSDIAVEWESNGQPENNYKTTPPVLDSDGSFFLYSKLTVDKSRWQQGNVFSCSVMHEALHNHYTQKSLSLSPG | 58600 | 0.538 | 1.07e+06 | 0.487 | 1.04e+06 | 0.172 |  |  |  |  |  | 
8 | NKp46-hz5D7v8-Fc* (Fc fusion, VHH-Fc fusion with an IgG1 Fc lacking a hinge (Fc*); also called NKp46-bz5D7v8-Fc*) EVQLVESGGGEVQPGGSLRLSCAASGRTFASAAMGWFRQAPGKEREFVAAISRSVGDTYYADSVKGRFTISRDNAKNTVYLQMSSLRAEDTAVYYCAAVVPTYGNNIYVHSAAYNYWGQGTLVTVKPGGGGPSVFLFPPKPKDTLMISRTPEVTCVVVDVSHEDPEVKFNWYVDGVEVHNAKTKPREEQYNSTYRVVSVLTVLHQDWLNGKEYKCKVSNKALPAPIEKTISKAKGQPREPQVYTLPPSRDELTKNQVSLTCLVKGFYPSDIAVEWESNGQPENNYKTTPPVLDSDGSFFLYSKLTVDKSRWQQGNVFSCSVMHEALHNHYTQKSLSLSPG | 53500 | 0.526 | 1.12e+06 | 0.696 | 930000 | 0.203 |  |  |  |  |  | 
9 | NKp46-hz5D7v9-Fc* (Fc fusion, VHH-Fc fusion with an IgG1 Fc lacking a hinge (Fc*)) EVQLVESGGGEVQPGGSLRLSCAASGRTFASAAMGWFRQAPGKEREFVAAISRSVDDTYYADSVKGRFTISRDNAKNTVYLQMSSLRAEDTAVYYCAAVVPTYGNNIYVHSAAYNYWGQGTLVTVKPGGGGPSVFLFPPKPKDTLMISRTPEVTCVVVDVSHEDPEVKFNWYVDGVEVHNAKTKPREEQYNSTYRVVSVLTVLHQDWLNGKEYKCKVSNKALPAPIEKTISKAKGQPREPQVYTLPPSRDELTKNQVSLTCLVKGFYPSDIAVEWESNGQPENNYKTTPPVLDSDGSFFLYSKLTVDKSRWQQGNVFSCSVMHEALHNHYTQKSLSLSPG | 61900 | 0.655 | 1.22e+06 | 0.941 | 1.05e+06 | 0.392 |  |  |  |  |  | 
10 | NKp46-hz5D7v10-Fc* (Fc fusion, VHH-Fc fusion with an IgG1 Fc lacking a hinge (Fc*)) EVQLVESGGSLRLSCAASGRTFASAAMGWFRQAPGKEREFVAAISRSDDTYYADSVKGRFTISRDNAKNTVYLQMSSLRAEDTAVYYCAAVVPTYGNNIYVHSAAYNYWGQGTLVTVKPGGGGPSVFLFPPKPKDTLMISRTPEVTCVVVDVSHEDPEVKFNWYVDGVEVHNAKTKPREEQYNSTYRVVSVLTVLHQDWLNGKEYKCKVSNKALPAPIEKTISKAKGQPREPQVYTLPPSRDELTKNQVSLTCLVKGFYPSDIAVEWESNGQPENNYKTTPPVLDSDGSFFLYSKLTVDKSRWQQGNVFSCSVMHEALHNHYTQKSLSLSPG |  | 1.06 |  | 0.82 |  | 0.269 |  |  |  |  |  | 
